Test results from the supplement of paper PMC7125110.
± gives the standard error. This sample holds only a part of the variants without activity.

B1: glmS ribozyme (parent)
chain: AUAAAAGCGCCAGAACUACAGAAAUGUAGUUGACGAGGAGGAGGUUUAUCGAAUUUUCGGCGGAUGCCUCCAAA

Variants of: B1
Assay: self-cleavage kobs at 2500 uM GlcN6P; higher = faster cleavage; RNA array
Details: with glucosamine-6-phosphate
In short: (§1)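 On sequenced MiSeq chips, barcoded ribozyme variants were made in situ by E. coli RNA polymerase and followed at 37 °C through a hybridised Cy3 probe. Glucosamine-6-phosphate was flowed in at 40 μM to 10 mM in HEPES/KCl/Mg(OAc)2 buffer. Exponential fits to normalised per-tile medians gave kobs, and weighted Michaelis–Menten fits gave kcat and KM.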
In the case of AUAAAAGCGCCAGAACUACAGAAAUGUAGUUGACGAGGAGGAGGUUUAUUGAAUAUUCGGCGGAUGCGUCCAAA, the “self-cleavage kobs at 2500 uM GlcN6P” value is reported as 0.00018 ± 5.2e-05 s⁻¹.
AUAAAAGCGCCAGACCUACAGAAAUGUAGUUGACGAUGGGGAGGUUUAUCGAAUUUUCGGCGGAUGCCUCCAAA was tested, and the “self-cleavage kobs at 2500 uM GlcN6P” value was under 1e-05 s⁻¹.
With AUAAACGCGCCAAAACUACAGAAAUGUAGUUGACGAGGCGGAGGUUUAUCGAAUUUUCGGCGGAUGUCUGCAAA the “self-cleavage kobs at 2500 uM GlcN6P” value was under 1e-05 s⁻¹.
AUAAAAGCGCCAGAACUACAGAAAUGUAGUUGACGAGGAGGUGGUUUAUUUAACUUUCGGCGGAUGCCUCCAAA was tested, and the “self-cleavage kobs at 2500 uM GlcN6P” value was under 1e-05 s⁻¹.
In the case of AUAAAAGCGCCAGAAUUACAGAAAUGUAGUUGACGAGGAGCAGCUUUAUCGAAUUUUCCGCGGAUGCCUCCAAA, the “self-cleavage kobs at 2500 uM GlcN6P” value is reported as under 1e-05 s⁻¹.
AUAAAAGCGCCAGAACUACAGAAAUGUAGAUGACGAGGGGGAGGUUUAUCGAAUUUUCGGCGGAUGCCGCCAAA was tested, and the “self-cleavage kobs at 2500 uM GlcN6P” value was 5.54e-05 ± 2.2e-05 s⁻¹.
With AUAAAAGGGCCAGAACUACAGAAAUGUAGUUGACGAGGAGGAGGUUUAUCGAAUUUUCGGCGGAUGCCGCCAAA the “self-cleavage kobs at 2500 uM GlcN6P” value was under 1e-05 s⁻¹.
AUAAAAGCGCCAGAACUACAGAAAUGUAGUUGACGAGGAGGAGGUUUAUCGAAUUUUCGGGGGAUGCGUCCAAA was tested, and the “self-cleavage kobs at 2500 uM GlcN6P” value was 0.000131 ± 5.8e-05 s⁻¹.
With AUAAAAGCGCCAGAACUACAGAAAUGUAGUUGAGAAGGAGGAGGUUUACCGAAUUUUCGGCGGAUGCCUCCAAA the “self-cleavage kobs at 2500 uM GlcN6P” value was under 1e-05 s⁻¹.
With AUAAAAGCGCCAGAAGUACAGAAAUGUAGUUGACGAGGAGUAGGUUUAUGGAAUUUUCGGCGGAUGCCUCCAAA the “self-cleavage kobs at 2500 uM GlcN6P” value was under 1e-05 s⁻¹.
For AUAAAAGCGCCAGAACUACAGAAAUGUAGUUGGCGAGGAGGAGGUUCAUCGAAUUUUCGGGGGAUGCCUCCAAA, the “self-cleavage kobs at 2500 uM GlcN6P” value was under 1e-05 s⁻¹.
AUAAAAGCGCCAGAACUACAGAAAUGUAGUUGUCGAGGAGGAUGUUUAUCGAAAUUUCGACGGAUGCCUCCAAA was tested, and the “self-cleavage kobs at 2500 uM GlcN6P” value was under 1e-05 s⁻¹.
AUAAAAGCGCCAGAACUACAGAAAUGUAGUUGACGAGGAGGAGGUUUAUCGAAUUUUCUGCGGCUCCCUCCAAA was tested, and the “self-cleavage kobs at 2500 uM GlcN6P” value was under 1e-05 s⁻¹.
AUAAAAGCGCCUGAACUACAGAAAUGUAGUUGACGAGGAGUAGGUUUUUCGAAUUUUCGGCGGAUGCCUCCAAA was tested, and the “self-cleavage kobs at 2500 uM GlcN6P” value was 7.03e-05 ± 3e-05 s⁻¹.
With AUAAAAGCGCCAGAACUACAGAAAUGUAGUUGACGAGGAACCGGUUUACCGAAUUUUCGGCGGAUGCCUCCAAA the “self-cleavage kobs at 2500 uM GlcN6P” value was under 1e-05 s⁻¹.
In the case of AUAAAAGCGCCAGAUCUACAGAAAUGUAAUUGACGAGGAGGAGGUUUAUCGAAUUUUCGGCAGAUGCCUCCAAA, the “self-cleavage kobs at 2500 uM GlcN6P” value is reported as under 1e-05 s⁻¹.
In the case of AUAAAAGCGCCUGGACUACAGAAAUGUAGUUGACGAGGAGGAGGUAUAUGGAAUUUUCGGCGGAUGCCUCCAAA, the “self-cleavage kobs at 2500 uM GlcN6P” value is reported as under 1e-05 s⁻¹.
With AUAAAAGCGCCGGAACUACAGAAAUGUAGUUGACGAGGAGGAGGUUUAUCGAAAGUUCGGCGGAUGCCUCCAAA the “self-cleavage kobs at 2500 uM GlcN6P” value was 0.000119 ± 4.5e-05 s⁻¹.
For AUAAAAGCGCCAGAACUACAGAAAUGUAGUUGACGAGGAGGAGGUUUGUCGAAGUUUCGGCGGAUGCCUUCAAA, the “self-cleavage kobs at 2500 uM GlcN6P” value was 0.000276 ± 7.7e-05 s⁻¹.
For AUAAAAGCGCCAGAGCUACAGAAAUGUAGUUGACGAGGAGUAGGUUUAUCGAAUUGUCGGCGGAUGCCUCGAAA, the “self-cleavage kobs at 2500 uM GlcN6P” value was 8.85e-05 ± 2e-05 s⁻¹.
With AUAAAAGCGCCAGUACUACAGAAAUGUAGGUGACGAGAAGGAGGUUUAUCGAAUUUUCGGCGGAUGCCGCCAAA the “self-cleavage kobs at 2500 uM GlcN6P” value was 0.00012 ± 5.3e-05 s⁻¹.
In the case of AUAAAAGCGCCAGAAGUACAGAAAUGUAGUUGACGGGGAGGAGGUUUAUCGAAUUUUCGGCGGAUGCCGCCAAA, the “self-cleavage kobs at 2500 uM GlcN6P” value is reported as 4.76e-05 ± 2.4e-05 s⁻¹.
With AUAAAAGCGCCAGAACUACAGAAAUGUAGUUGACGAGGAGAAGGUUUAUCGAAUAUCCGGCGGUUGCCUCCAAA the “self-cleavage kobs at 2500 uM GlcN6P” value was under 1e-05 s⁻¹.
With AUAAAAGCGUCAGAACUACAGAAAUGUAGUUGACGAGGAGGAGGUUUAUCCAAUUUUGGGCGGAUGCCUCCAAA the “self-cleavage kobs at 2500 uM GlcN6P” value was under 1e-05 s⁻¹.
In the case of AUAAAGGCGGCAGAACUACAGAAAUGUAGAUUACGAGGAGGAGGUUUAUCGAAUUGUCGGCGGAUGCCUCCAAA, the “self-cleavage kobs at 2500 uM GlcN6P” value is reported as under 1e-05 s⁻¹.
In the case of AUAAAAGCGCCAGAAAUACAGAAAUGUAGUUGACGAGGAGGAGGUUUAUCGAAUAUUCCGCGGAUGUCUGCAAA, the “self-cleavage kobs at 2500 uM GlcN6P” value is reported as 9.74e-05 ± 3.6e-05 s⁻¹.
With AUAAAAGCGCCAGGACUACAGAAAUGUAGUUGACGAGGAGGAGGUUUAUCGAAUUUUCGGCGGAUGGAUCCAAA the “self-cleavage kobs at 2500 uM GlcN6P” value was 2.78e-05 ± 1.3e-05 s⁻¹.
For AUAAAAGGGCCAGAAAUACAGAAAUGUAGUUGACGAGGAGGAUUUUUAUCGAAUUUUCGGCAGAUGCCUCCAAA, the “self-cleavage kobs at 2500 uM GlcN6P” value was under 1e-05 s⁻¹.
In the case of AUAAAAGCGCCAGAACUACAGAAAUGUAGUUGACGACUAGGCGGCGUAUCGAAUUUUCGGCGGAUGCCUCCAAA, the “self-cleavage kobs at 2500 uM GlcN6P” value is reported as under 1e-05 s⁻¹.
For AUAAAAGCGCCAGAACUACAGAAAUGUAGUUCACGAGAAGGAGGUUAAUCGAAUUUUUGGCGGCUGCCGCCAAA, the “self-cleavage kobs at 2500 uM GlcN6P” value was 0.000153 ± 4.8e-05 s⁻¹.
With AUAAAAGCGCCAGAAGUACAGAAAUGUAGAUGACGAGGAGGAGGUUUAUCGAAUUUUCGGCGGAUGCCUCUAAA the “self-cleavage kobs at 2500 uM GlcN6P” value was 0.000103 ± 3.5e-05 s⁻¹.
In the case of AUAAAAGCGCCAGAACUACAGAAAUGUAGUUGACGAGGAGGAGGAUUAUCGAAGUUUCGGCGGAUGCGUCCAAA, the “self-cleavage kobs at 2500 uM GlcN6P” value is reported as 9.7e-05 ± 3.2e-05 s⁻¹.
With AUAAAAGCGCCCGAACUACAGAAAUGUAGUUGACGGGGAGGAGGUUUAUCGAAUUUUCGGCGGAUGCCUCUAAA the “self-cleavage kobs at 2500 uM GlcN6P” value was under 1e-05 s⁻¹.
For AUAAAAGCGCCAGAACUACAGAAAUGUAGAUGACGAGGAGGAUGUUUAUCGAAUUUUCGGAGGAUGCCUCUAAA, the “self-cleavage kobs at 2500 uM GlcN6P” value was under 1e-05 s⁻¹.
AUAAAUGCGCCAGAACUACAGAAAUGUAGUUGACGACGAGGAGGUUUAUCGAAUUUUCGGCGGAUGCUUCCAAA was tested, and the “self-cleavage kobs at 2500 uM GlcN6P” value was under 1e-05 s⁻¹.

Variants of: B1
Assay: self-cleavage kobs at 10000 uM GlcN6P; higher = faster cleavage; RNA array
Details: with glucosamine-6-phosphate
In short: as §1
In the case of AUAAAAGCGCCAGAAGUACAGAAAUGUAGUUGACGAGGAGUAGGUUUAUGGAAUUUUCGGCGGAUGCCUCCAAA, the “self-cleavage kobs at 10000 uM GlcN6P” value is reported as under 1e-05 s⁻¹.
In the case of AUAAAAGCGCCAGAUCUACAGAAAUGUAAUUGACGAGGAGGAGGUUUAUCGAAUUUUCGGCAGAUGCCUCCAAA, the “self-cleavage kobs at 10000 uM GlcN6P” value is reported as under 1e-05 s⁻¹.
With AUAAAUGCGCCAGAACUACAGAAAUGUAGUUGACGACGAGGAGGUUUAUCGAAUUUUCGGCGGAUGCUUCCAAA the “self-cleavage kobs at 10000 uM GlcN6P” value was under 1e-05 s⁻¹.
